# Measured values reported in patent US20070054259, “Modulation of hnRNP H and treatment of DM1” (City of Hope, published 2007).
# T1: hnRNP H (recombinant) (UniProt P31943 P31943:1-449)
# T1 sequence: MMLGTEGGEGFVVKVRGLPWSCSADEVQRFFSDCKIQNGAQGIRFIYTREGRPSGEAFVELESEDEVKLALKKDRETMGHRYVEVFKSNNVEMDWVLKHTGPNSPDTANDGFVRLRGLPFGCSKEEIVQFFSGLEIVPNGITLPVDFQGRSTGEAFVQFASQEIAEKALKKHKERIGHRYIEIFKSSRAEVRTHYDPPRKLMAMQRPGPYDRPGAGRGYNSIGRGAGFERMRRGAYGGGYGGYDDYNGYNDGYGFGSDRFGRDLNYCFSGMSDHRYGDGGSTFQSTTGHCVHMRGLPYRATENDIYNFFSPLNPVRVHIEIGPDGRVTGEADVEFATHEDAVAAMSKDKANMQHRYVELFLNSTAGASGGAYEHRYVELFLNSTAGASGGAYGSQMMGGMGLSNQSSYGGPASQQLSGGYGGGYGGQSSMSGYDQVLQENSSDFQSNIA
# Legend:
# Conditions in all cases: tags: bacterially expressed, purified as Markovtsov et al. 2000
# [1] = molecular target: T1, hnRNP H (recombinant); assay: EMSA; much more shifted than CUG46; 50 kDa UV crosslink but no 100 kDa dimer without extract
# Description: (§1) Based on previous data FIGS. 1B, 1C, 2A and 2B) we speculated that the binding of hnRNP H to CUG repeats is proportional to the length of the repeats. The recombinant form of hnRNP H was indubated with different length CUG repeats and complexes resolved in a native gel (FIG. 4A). No binding to the CUG 5 RNA was observed (Lanes 1 and 3). When the CUG 46 RNA was used in this assay, only a small fraction of the protein was gel shifted (marked as * in lane 6). In contrast, the CUG85 RNA was much more gel shifted (marked as * in lane 9). […] Combined all hnRNP H binds to CUG repeats in a proportional way depends on the length of the (CUG) repeats.
# [2] = molecular target: T1, hnRNP H (recombinant); assay: EMSA; 10 ng protein; binding abolished by branch site mutation
# Description: as §1
# The different RNAs used in these assays have CUG repeats as well as a splicing acceptor site derived from a downstream of the DMPK gene (Gourdon, 1997). To understand the role of this 3′ branch site in the binding reaction, a mutant CUG85 clone containing a mutant form of the branch site was created (marked as CUG85′, FIG. 1A).
# [3] = molecular target: T1, hnRNP H (recombinant); assay: EMSA; native gel, lane 3
# Description: as §1
binder,measurement,setting,value
(CUG)85 DMPK RNA (ssRNA) RNA: CUGCUGCUGCUGCUGCUGCUGCUGCUGCUGCUGCUGCUGCUGCUGCUGCUGCUGCUGCUGCUGCUGCUGCUGCUGCUGCUGCUGCUGCUGCUGCUGCUGCUGCUGCUGCUGCUGCUGCUGCUGCUGCUGCUGCUGCUGCUGCUGCUGCUGCUGCUGCUGCUGCUGCUGCUGCUGCUGCUGCUGCUGCUGCUGCUGCUGCUGCUGCUGCUGCUGCUGCUGCUGCUGCUGCUGCUGCUGCUGCUGCUGCUGCUGCUGGGGGGAUCACAGACCA,binding result,[1],binds
"(CUG)85' DMPK RNA, mutated 3' branch site (ssRNA) RNA: CUGCUGCUGCUGCUGCUGCUGCUGCUGCUGCUGCUGCUGCUGCUGCUGCUGCUGCUGCUGCUGCUGCUGCUGCUGCUGCUGCUGCUGCUGCUGCUGCUGCUGCUGCUGCUGCUGCUGCUGCUGCUGCUGCUGCUGCUGCUGCUGCUGCUGCUGCUGCUGCUGCUGCUGCUGCUGCUGCUGCUGCUGCUGCUGCUGCUGCUGCUGCUGCUGCUGCUGCUGCUGCUGCUGCUGCUGCUGCUGCUGCUGCUGCUGCUGGGGGGAUCAGUGACCA",binding result,[2],no binding
CUGCUGCUGCUGCUGGGGGGAUCACAGACCA (ssRNA) [(CUG)5 DMPK RNA],binding result,[3],no binding
